In patent US20240245800A1, “HIGHLY SPECIFIC RABBIT SINGLE -DOMAIN ANTIBODIES FOR DRUG DELIVERY IN IMMUNOTHERAPY APPLICATIONS” (TECHNOPHAGE, INVESTIGAÇÃO E DESENVOLVIMENTO EM …, priority 2021, published 2024):

Test system: CLBL-1 cell extracts
Experiment: ELISA screening of anti-cNHL VL sdAb clones
Assay type: binding, canine
Conditions: clone supernatants, CLBL-1 extracts
Procedure: After the phage display selection, in order to express and select the best anti-cNHL VL sdAbs, phagemid DNA derived from the in vivo output selection was cloned into a PT7-PL vector and transformed into an E. coli strain BL21. Then, individual clones were auto induced, and the supernatant tested in ELISA assays against CLBL-1 and Jurkat cell extracts. To select the best lead candidates, three parameters were evaluated: binding against cNHL, expression yields, and unspecific binding. […] After selection, to characterize the selected clones, the 43 best lead candidates were analysed by sanger sequencing (FIG. 6B). To get further insights of the enriched sequences during the in vivo phage display selection, we performed next generation sequencing (NGS) of the biopanning repertoires. NGS allows massive sequence analysis of the panning population, enabling a genomic assessment of the library diversity and frequency of each clone. Two samples were sequenced: biopanning from the CLBL-1 tumour models and initial immune VL sdAb cNHL library (FIG. 7). Upon bioinformatic analysis of the NGS data, we were able to determine the diversity of each sample and identify the most represented clones. A total of 34880 sequences were obtained for the biopanning from the CLBL-1 tumours. The NHL library obtained a total of 48864 sequences. The number of singletons, consisting of the sequences with a single occurrence, varied between samples, ranging from 76.8% in the library, and 33.3% in the in vivo biopanning from the CLBL-1. Through the comparison of the sequence prevalence between the biopannings and the library, we were able to verify that the number of occurrences in each sequence was higher in the biopanning clones. […] By comparing ELISA data, sanger sequencing and NGS analysis, the six best clones (A12, C8, C5, E1, E2, and B12) were produced and purified. Due to its binding characteristics and production properties, C5 sdAb clone was chosen to be thoroughly characterized and used in the development of the proposed ADC.
To express and select anti-NHL-sdAbs, phagemid DNA encoding selected anti-cNHL sdAbs was cloned into PT7-PL (PT7-peptide leader) vector and transformed into E. coli strain BL21. Individual colonies were inoculated in 100 μl of Super Broth (SB) medium containing Overnight Express™ Autoinduction System (Novagen®) and 100 μg/ml of ampicillin and incubated overnight at 30° C. Next day, 40 μl of BugBuster (Roche) containing anti-protease cocktail-EDTA free inhibitors (Roche) were added and incubated for 30 min at 4° C. Then, plates were centrifuged at 1200 rpm and the supernatant was tested in ELISA assays. Three different conditions were assessed: binding to the sdAbs to the antigen, expression level and unspecific binding. After coating the wells with CLBL-1 cell extracts or Raji cell extracts for 1 h at 37° C., wells were blocked with 3% BSA in PBS. Then, wells were washed with PBS and clones were added and incubated for 1 h, at 37° C. Next, plates were washed and incubated with anti-HA HRP antibody (Roche). Finally, after 1 h incubation, plates were washed and ABTS (Roche) was added and optical density at 405 nm was measured at different time points. To evaluate the expression level, the same protocol was applied, excluding antigen coating.
For unspecific binding, antigen was replaced by 3% BSA. Rabbit sera and anti-CD20 antibody were used as positive controls. BL21 cell extracts were used as negative controls. In the end, the ten best individual clones were sequenced at Eurofins company. Sequence analysis was performed using the Vector Nti software (Invitrogen). The antibody frameworks, CDRs and the amino acid numbering and sequences followed the rules described by Kabat et al. (1991) Sequences of proteins of immunological interest. Bethesda, MD, U.S. Dept. of Health and Human Services, Public Health Service, National Institutes of Health. […]

B1: C5: rabbit derived anti-cNHL VL sdAb clone, SEQ. ID. 3; ^99mTc radiolabelled for biodistribution (antibody, listed as Oryctolagus cuniculus, V domains shown)
VL: ELDLTQTPSPVSASVGGTATINCQASQSVYNNYWWAWYQQRPGHPPKLLIYETSKLASGVPSRFKGSGSGTQFTLTIIDVQCDDAATYVCAGGYGTVIDNAFGGGTELEIL
modifications: 99mTc(CO)3 radiolabel
notes: ID; ^99mTc radiolabelled for biodistribution
- ELISA signal against NHL cells: best results
